Source: the supplement of paper PMC10899765
Where “and” joins values, the source holds several entries; their conditions need not be identical. Identical values can stand only once.

What was measured:
Details in all cases: 20 nM; 72 h
[1] = test system: MCF10A; assay: one-nucleolus phenotype percent effect (relative to siNT 0% and siNOL11 100%); higher = more cells with one nucleolus (ribosome biogenesis inhibition)
Description: (§1)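 After 72 h, cells were fixed and stained with Hoechst and anti-fibrillarin, and nucleoli per nucleus were counted with CellProfiler. Values are plate-adjusted percent effect for the one-nucleolus and 5+ nucleoli phenotypes, normalised to siNT (0%) and to the positive controls siNOL11 or siKIF11 (100%), as the mean of biological triplicates. Percent viability is the nuclei count relative to siNT.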

[2] = test system: MCF10A; assay: 5+ nucleoli phenotype percent effect (relative to siNT 0% and siKIF11 100%); higher = more cells with five or more nucleoli
Description: as §1

[3] = test system: MCF10A; assay: percent viability (nuclei count relative to siNT); higher = more viable cells
Description: as §1

Sequence | one-nucleolus phenotype percent effect [1] | 5+ nucleoli phenotype percent effect [2] | percent viability [3]
CAACCUGGAGGACUCCAUGCUG [hsa-miR-490-3p] | -12.6% | 55.8% | 41.3%
CAGUUAUCACAGUGCUGAUGCU [hsa-miR-101-5p] | 8.44% | -23.5% | 33.9%
AUUAAGGACAUUUGUGAUUGAU [hsa-miR-4477b] | -4.92% | 7% | 37.8%
GGGCGCCUGUGAUCCCAAC [hsa-miR-566] | -9.02% | 39.3% | 81.2%
UAAGGUGCAUCUAGUGCAGUUAG [hsa-miR-18b-5p] | 40.6% | -32.4% | 41.9%
AGCUGGUAAAAUGGAACCAAAU [hsa-miR-133a-5p] | 7.21% | -4.69% | 30.7%
UGGGAGAGAGGACUGUGAGGC [hsa-miR-8085] | 21.4% | -1.75% | 12.6%
AUAGCAAUUGCUCUUUUGGAA [hsa-miR-4766-3p] | 19.4% | -28.9% | 38.1%
GAAGUGUGCCGUGGUGUGUCU [hsa-miR-595] | 12.4% | -22% | 30.6%
CCCUGCUGCCUUCACCUGCCAG [hsa-miR-6893-3p] | -5.77% | -2.09% | 50.3%
UUGGGCUGGGCUGGGUUGGG [hsa-miR-1587] | 29.2% | -22.5% | 19.9%
AGAGCUUAGCUGAUUGGUGAAC [hsa-miR-27b-5p] | 17.8% | -22.4% | 78.6%
CCCAAUACACGGUCGACCUCUU [hsa-miR-323b-3p] | -23.7% | 68.7% | 77.6%
UACUCUGGAGAGUGACAAUCAUG [hsa-miR-514a-5p] | -13.3% and -15.4% | 29.4% and 19% | 56.4% and 66.9%
CAAGGGACCAAGCAUUCAUUAU [hsa-miR-4475] | 7.86% | -16.1% | 37.7%
UCACAAGGUAUUGACUGGCGUA [hsa-miR-4457] | 1.5% | -15.7% | 47.9%
GGAUGGUUGGGGGCGGUCGGCGU [hsa-miR-8069] | 28.5% | -16.7% | 33.5%
AUUGGACUGCUGAUGGCCCGU [hsa-miR-4529-3p] | 19.5% | -12.1% | 48.3%
GCAGGCACAGACAGCCCUGGC [hsa-miR-4269] | 43.1% | -29% | 30.1%
AGGGAGGGACGGGGGCUGUGC [hsa-miR-149-3p] | 42.9% | -16.6% | 15.1%
